Consider 3 molecules from article PMC9745132, “Visualization of real-time receptor endocytosis in dopamine neurons enabled by NTSR1-Venus knock-in mice” (Frontiers in Cellular Neuroscience, 2022).

Assay [1] has as its system hippocampal neurons from Ntsr1^WT/WT mice. Description: Intracellular calcium release (Fluo-4) in hippocampal neurons from Ntsr1^WT/WT mice. The assay is classed as cell-based, mouse. Particulars: 1 μM, maximal calcium response control. For orientation: Calcium flux is commonly read through the fluorescence of an indicator in the cells.
Assay [2] deals with hippocampal neurons from Ntsr1^Venus/Venus mice. Description: Intracellular calcium release (Fluo-4) in hippocampal neurons from Ntsr1^Venus/Venus mice. The assay is classed as cell-based, mouse. Particulars: 1 μM, maximal calcium response control. Here is the method:
To isolate hippocampal neurons, P0 pups were removed from the cage of NTSR1-Venus homozygous knock-in breeding pairs. Pups were decapitated, brains were removed dorsal side up into fresh ice-cold Hank’s balanced salt solution (HBSS; Gibco, Grand Island, NY, USA), meninges were removed, and hippocampi were dissected into Hibernate A (Gibco, Grand Island, NY, USA) on ice. Tissue dissociation was carried out with the Papain Dissociation System according to the manufacturer’s protocol (Worthington Biochemical Corporation, Lakewood, NJ, USA). Neurons were plated on Poly-D-Lysine (Sigma) coated surfaces at 100,000 cells per 12 mm coverslip (NeuVitro, Camas, WA, USA) in a 24-well plate for immunostaining or 50,000 cells per well of an 8 well chamber slide (Ibidi, Grafelfing, Germany) for calcium measurements. Plating media [Neurobasal A (Gibco, Grand Island, NY, USA), 1% FBS (Fisher Scientific), 2% B-27 (Gibco, Grand Island, NY, USA), 0.5 mM GlutaMAX (Gibco, Grand Island, NY, USA), and 1x Penicillin/Streptomycin (Invitrogen, Waltham, MA, USA)] was exchanged 1 h after plating to maintenance media (Neurobasal A, 2% B-27, 0.5 mM GlutaMAX, and 1x Penicillin/Streptomycin). Half of the volume of media was exchanged for fresh media every 3–4 days. On day in vitro (DIV) 3 Cytosine arabinoside hydrochloride (Sigma) was added to media with a final concentration of 0.1 μM to decrease glial cell proliferation.
Hippocampal neurons were grown until DIV 7. Fluo-4 NW Calcium Assay kit (Thermo Fisher) was used according to the manufacturer’s protocol. Briefly, drugs were prepared at 4 μM stock solutions in the assay buffer provided without probenecid. […] Fluorescence was imaged with a 10x objective on an (Olympus, Shinjuku City, Tokyo, Japan) IX73 microscope (Fluo-4 em. 506 nm).
Live imaging settings of Fluo-4 were as follows, 79 ms exposure, 2 s intervals for 90 cycles (180 s). […] First regions of interest (ROI) were automatically determined using the analyze particles plug in. […] Relative fluorescence is defined as F/F0 where F corresponds to the cell fluorescence and F0 to the basal fluorescence.

Assay [3] addresses NTSR1-RlucII (mouse) (UniProt O88319).
For assay [4], the target named is NTSR1-Venus (transfected construct) (mouse) (UniProt O88319).
NTSR1-Venus (transfected construct) (mouse), sequence (O88319 whole entry): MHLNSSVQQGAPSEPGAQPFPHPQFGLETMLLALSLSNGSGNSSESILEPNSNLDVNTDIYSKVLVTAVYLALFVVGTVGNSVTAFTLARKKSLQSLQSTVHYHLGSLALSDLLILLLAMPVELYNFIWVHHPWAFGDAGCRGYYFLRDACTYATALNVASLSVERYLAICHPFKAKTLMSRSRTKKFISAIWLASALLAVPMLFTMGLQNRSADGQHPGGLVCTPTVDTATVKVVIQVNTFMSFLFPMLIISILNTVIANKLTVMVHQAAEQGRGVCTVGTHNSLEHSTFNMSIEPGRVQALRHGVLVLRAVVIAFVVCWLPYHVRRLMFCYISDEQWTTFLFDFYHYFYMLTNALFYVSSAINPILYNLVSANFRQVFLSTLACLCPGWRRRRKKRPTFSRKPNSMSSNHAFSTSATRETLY
In assay [5] the target is mouse NTSR1 (untagged) (mouse) (UniProt O88319).
mouse NTSR1 (untagged) (mouse), sequence (O88319 whole entry): as above
For assay [6], the target named is NTSR1-RlucII (mouse) (UniProt O88319). This is another data set of the same source.
NTSR1-RlucII (mouse), sequence (O88319 whole entry): as above
For assay [7], the target named is NTSR1-Venus (knock-in receptor of Ntsr1 Venus/Venus mice) (mouse) (UniProt O88319).
NTSR1-Venus (knock-in receptor of Ntsr1 Venus/Venus mice) (mouse), sequence (O88319 whole entry): as above
For the next assay, the target named is T1, NTSR1-Venus (Mus musculus, UniProt O88319).
T1 construct: monitoring endogenous NTSR1-Venus receptor endocytosis could differentiate NTSR1 agonists; endogenous in cells; host or cells: primary hippocampal neurons from homozygous NTSR1-Venus knock-in mice (C57BL/6N background)
T1 sequence (O88319 whole entry): as above
Briefly: Multiphoton imaging of NTSR1-Venus internalization in acute SN/VTA brain slices. In kind it is cell-based. To be noted: 1 μM during slice recovery and imaging, 60 min. Here is the method:
Male and female Ntsr1^Venus/Venus mice aged 5 weeks were anesthetized, and 250 μm-thick coronal slices containing substantia nigra pars compacta and ventral tegmental area were prepared. Cutting solution contained (in mM): 87 NaCl, 25 NaHCO3, 25 glucose, 75 sucrose, 2.5 KCl, 1.25 NaH2PO4, 0.5 CaCl2, and 7 MgCl2; bubbled with 5% CO2/95%O2; 4°C. Following cutting, slices were incubated in the same solution for 30 min at 33°C. For control experiments, slices were subsequently incubated in the same solution at room temperature until imaging. For antagonist experiments, slices were subsequently incubated in cutting solution with 1 μM SR48962 until imaging. SR48962 was prepared as a 1 mM stock in water.
Imaging solution referred to as aCSF contained (in mM): 125 NaCl, 2.5 KCl, 2 CaCl2, 1 MgCl2, 25 NaHCO3, 1.25 NaH2PO4, 25 glucose; bubbled with 5% CO2/95% O2; 31–34°C, ∼310 mOsm. For antagonist-only experiments, 1 μM SR48962 was added to the imaging solution. For antagonist plus agonist experiments, a baseline image was taken with no NTSR1 agonist or antagonist in the imaging solution, and subsequently, 10 μM PD149163 [prepared from a stock solution in water] was added to the imaging solution. As a precautionary measure, all components that were exposed to antagonist were rinsed first with 70% ethanol and then water. All components that were exposed to agonist were replaced between experiments.
For two-photon laser scanning microscopy (2PLSM), a 2-photon source (Coherent Ultra II, Santa Clara, CA, USA) was tuned to 920 nm for imaging. […] Both epi and transfluorescence were detected with R9110 photomultiplier tubes (Hamamatsu, Shizuoka, Japan). Laser power measured at the focal plane under the objective was between 8 and 34 mW. […]
To test whether NTSR1 receptors are indeed being bound by endogenous ligand in acute slice, we compared NTSR1 distribution in slices treated with the NTSR1 specific antagonist, SR48692 ([Gully et al., 1993]). […] NTSR1-Venus puncta were then quantified in the acquired image projections by counting vesicle-sized particles (Figure 5E). […]

Structures can show the parent of a compound that is named as a salt.

In the case of `C[C@H](CCC(=O)O)C[C@H](C)C[C@H](C)C(=O)/C=C(\O)[C@H](C)C[C@H](C)C/C=C/[C@@H](C)[C@@H](O)[C@@H](C)[C@@H](O)C[C@@H]1CC[C@@](C)([C@H]2CC[C@@](C)([C@@H](C)O)O2)O1` [Ionomycin, Ionomycin calcium salt from Streptomyces conglobatus], the calcium increase in assay [1] and in assay [2] was 3 fold each time.

On to “Neurotensin (from UniProt P30990 151-163) (peptide)”, for which the NTSR1-RlucII internalization in HEK293 cells (decrease in ebBRET between NTSR1-RlucII and rGFP-CAAX), concentration-response; potency LogEC50 with NTSR1-RlucII (mouse) [3] is -8.07 LogEC50 (M). In addition, the Gq activation in HEK293 cells (ebBRET between p63RhoGEF-RlucII and rGFP-CAAX, EMTA), concentration-response; potency LogEC50 in assay [4] is -8.78 LogEC50 (M). In addition, the Gq activation in HEK293 cells (ebBRET between p63RhoGEF-RlucII and rGFP-CAAX, EMTA), concentration-response; potency LogEC50 in assay [5] is -8.97 LogEC50 (M). The NTSR1-RlucII internalization in HEK293 cells (decrease in ebBRET between NTSR1-RlucII and rGFP-CAAX), concentration-response; potency as told in the text in the assay with NTSR1-RlucII (mouse) [6] came out at 5.89 nM. For the same molecule, in assay [7], the NTSR1-Venus endocytosis in primary hippocampal neurons (ratio of Venus and EEA1 positive to total EEA1 positive endosomes), dose-response after 5 min of agonist; EC50 was 4.03 nM; the NTSR1-Venus redistribution to EEA1 endosomes in primary hippocampal neurons, 1 uM neurotensin, time course 0-60 min; % EEA1 vesicles with Venus (value at 5 min) stood at 98.5%.

Take `COc1cccc(OC)c1-c1cc(C(=O)NC2(C(=O)O)C3CC4CC(C3)CC2C4)nn1-c1ccnc2cc(Cl)ccc12` (stereo not drawn) [SR48692]: the “NTSR1-Venus puncta across imaging time” value on NTSR1-Venus is “trend of decreasing puncta across imaging time”.
